Test results published in publication PMC4605297.

Biological target: T1, SsOGT wild type (Sulfolobus solfataricus) (UniProt Q97VW7)
T1 sequence: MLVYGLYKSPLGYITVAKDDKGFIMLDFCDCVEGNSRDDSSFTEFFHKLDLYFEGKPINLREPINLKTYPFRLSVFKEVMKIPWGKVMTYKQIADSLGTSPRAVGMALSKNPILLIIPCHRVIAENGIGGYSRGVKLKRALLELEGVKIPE
Assay: competition
Settings: EMSA: 0-25 uM protein, 0.2 uM probe, 37 C 10 min, 10 ul, buffer as ref. 17, 8% native PAGE in 1X TBE pH 8.3, competition: BG-VG assay, 50 C under ref. …

Sequence | Ki (O6-methylguanine at position 26 of strand 1) [nM] | Ki (O6-methylguanine at position 21 of strand 1) [nM]
GGCAGTAGGCCTAGCATGACAATCTGCATTGGTGATCACGG / CGCTCATCCACAATGCAGATTGTCATGCTAGGCCTACTGCC [ds-Fwdm26] | 830 | 
GGACACTGTACGTTAAGGCGGATCGAATTAGGATTAA / GGTTAATCCTAATTCGATCGCCTTAACGTACAGTGT [ds-UPm] |  | 280
